Structures can show the parent of a compound that is named as a salt. Starred links: 1 amine or outer side, 2 acyl side, 3 side chain; linkers in the order of their positions; H or OH if unused. Positions of bridges follow the written chain, without caps; N, C: chain ends. Non-standard residues stand in square brackets, D forms with d. Residues, ends and D or L forms follow the SMILES beside them. Chains are numbered I, II in the order given. *: point of attachment. TATA = O=C(CC[*:1])N1CN(C(=O)CC[*:2])CN(C(=O)CC[*:3])C1; Dolaproine = CO[C@@H]([C@@H]1CCCN1)[C@@H](C)C(=O)O; Dil = CC[C@H](C)[C@H](NC)[C@@H](CC(=O)O)OC; X2 = O=C(CCCC(=O)[*:2])NCCC(=O)[*:1]; PABC = O=C(OCc1ccc(N[*:1])cc1)[*:2]; X1 = C[C@@H](N*)[C@@H](O)c1ccccc1; Hyp = O=C(O)[C@@H]1C[C@@H](O)CN1; hArg = N=C(N)NCCCC[C@H](N)C(=O)O; Cit = NC(=O)NCCC[C@H](N)C(=O)O; Pen = CC(C)(S)[C@H](N)C(=O)O; NMeV = CN[C@H](C(=O)O)C(C)C; Sar = CNCC(=O)O
What was measured:
NCI-H1975 = test: In vitro anti-proliferative activity, CellTiter-Glo; assay type: cell-based, Human; details: NCI-H1975, 72 h
Protocol: (§1) To investigate the effect of the compounds of the present invention on inhibiting cell proliferation by detecting the effect of the compounds on cell activity in vitro in tumor cell lines NCI-H1975 and SK-OV-3.
(§2) The tumor cell lines were cultured in a 37° C., no CO2 incubator and a 37° C., 5% CO2 incubator according to the culture conditions shown in Table 15, respectively. The cells were periodically passaged, and cells in a logarithmic growth phase were taken for plating.
(§3) Cells in a logarithmic growth phase were harvested and centrifuged at 1000 rpm for 3 min at room temperature. The supernatant was discarded, and the cells were resuspended in 5 mL of a culture medium. Then, 20 ul of the cell suspension was pipetted and mixed with trypan blue at 1:1 for staining for 3 min to detect cell viability and to count viable cells. The cell density was adjusted to 4000 NCI-H1975/well or 5000 SK-OV-3/well. Then, 90 μL of the cell suspension was added to each culture plate well, and a cell-free culture medium was added to blank control wells. […]
(§4) The detection was performed according to the instructions of the Promega CellTiter-Glo Luminescent Cell Viability Assay kit (Promega-G7573). The luminescence signal was detected on the En Vision® Multi-mode Plate Reader (EnVision 2104-10). […]

SK-OV-3 = test: as above; assay type: cell-based, Human; details: SK-OV-3, 72 h
Protocol: as §1, §2, §3, §4

[1] = Pharmacokinetic analysis in rat plasma (6.1, 2 mg/kg); assay type: in vivo, SD rats; details: rat, in vivo, SD rats, single IV 2 mg/kg, plasma
Protocol: Experimental purpose: To test the pharmacokinetics of the compounds of the present invention in SD rats.
6.1 The pharmacokinetic characteristics of the compound after intravenous injection and oral administration were tested in rats according to a standard protocol. The compound to be tested was formulated into a clear solution using 50 mM acetate buffer (pH=5) in 10% sucrose as a vehicle. Two SD rats were given a single intravenous injection of 2 mg/kg of the compound to be tested. Whole blood was collected at time points of 0.083, 0.25, 0.5, 1, 2, 4, 8, and 24 hours after administration to get plasma. The concentration of the compound to be tested and the concentration of its potential metabolite MMAE were analyzed by the LC-MS/MS method, and the pharmacokinetic parameters were calculated by Phoenix WinNonlin software.

Stability in whole blood = assay type: in vitro ADME, SD rats; details: SD rat whole blood, 2 μM, 37° C.
Protocol: To test the stability of the compounds of the present invention in whole blood from SD rats and Cynomolgus macaques.
The corresponding incubation plates, including T0, T10, T30, T60, T120, and T240 incubation plates, were added with a 2 μL working solution of the compound to be tested (100 μM). Three parallel wells were prepared for each sample. Then, 98 μL of blank whole blood from SD rats and Cynomolgus macaques was added to the corresponding incubation plates to which the working solution had been added. All samples were incubated in a 37° C. water bath. […] At the end of each incubation time point, the corresponding incubation plate was removed, added with stop buffer, precipitated, and centrifuged for 20 minutes. Then, 100 μL of the supernatant was diluted with 300 μL of ultrapure water, mixed uniformly, and then analyzed by the LC-MS/MS method. The concentration of the compound to be tested in the sample was semi-quantitatively determined by the liquid chromatography-tandem mass spectrometry (LC-MS/MS) method.

[2] = Metabolic stability in hepatocytes; assay type: in vitro ADME, Cynomolgus macaques; details: Cynomolgus macaque hepatocytes, 1 μM, 0.5×10^6 cells/mL
Protocol: To investigate the metabolic stability of the compounds of the present invention in hepatocytes from Cynomolgus macaques and humans.
Incubations were performed in 96-well plates using an external extraction method. Several 96-well sample precipitation plates, designated T0, T15, T30, T60, T90, T0-MC, T90-MC, and blank matrix, were prepared, respectively. The recovery culture medium and incubation culture medium were removed in advance and placed in a 37° C. water bath for preheating. Frozen hepatocytes from Cynomolgus macaques and humans were removed from a liquid nitrogen tank, recovered, and diluted to 0.51×10^6 cells/mL with the incubation culture medium. […]
At the end of the incubation at the corresponding time point, the incubation plates were removed, from which 25 μL of a compound mixture with the cells was removed and added to sample plates containing 125 μL of stop buffer. […] All samples were mixed uniformly and then analyzed by the LC-MS/MS method.
The concentration of the compound of the present invention in the sample was semi-quantitatively determined by the liquid chromatography-tandem mass spectrometry (LC-MS/MS) method without a standard curve and quality control sample. […]

## CC[C@H](C)[C@@H]([C@@H](CC(=O)N1CCC[C@H]1[C@H](OC)[C@@H](C)C(=O)N[C@H](C)[C@@H](O)c1ccccc1)OC)N(C)C(=O)[C@@H](NC(=O)[C@H](C(C)C)N(C)C(=O)OCc1ccc(NC(=O)[C@H](CCCNC(N)=O)NC(=O)[C@@H](NC(=O)CCCC(=O)NCCC(=O)N(C)CC(=O)N(C)CC(=O)N(C)CC(=O)N(C)CC(=O)N(C)CC(=O)N(C)CC(=O)N(C)CC(=O)N(C)CC(=O)N(C)CC(=O)N(C)CC(=O)N[C@H]2CCCCNC(=O)C[C@@H](C(=O)N[C@H]3CSCCC(=O)N4CN5CN(C4)C(=O)CCSC(C)(C)[C@@H](C(N)=O)NC(=O)[C@H](CCCCNC(=N)N)NC(=O)[C@H](Cc4c[nH]c6ccccc46)NC(=O)[C@@H](CC(=O)O)NC(=O)[C@@H]4CCCN4C(=O)[C@H](Cc4c[nH]cn4)NC(=O)[C@H](CC(C)C)NC(=O)[C@H](CSCCC5=O)NC(=O)[C@H](CC(C)C)NC(=O)[C@@H]4CCCN4C(=O)[C@H](CC(N)=O)NC(=O)[C@H](C(C)C)NC(=O)[C@H](CC(C)C)NC(=O)[C@@H]4C[C@@H](O)CN4C3=O)NC(=O)[C@H](CCCCNC(=N)N)NC2=O)C(C)C)cc1)C(C)C [Acetate salt of PDC_8] (I: [Sar][Sar][Sar][Sar][Sar][Sar][Sar][Sar][Sar][Sar]K[hArg]DC[Hyp]LVNPLCLHP[dD]W[hArg][Pen]-NH2 / II: V[Cit][PABC][NMeV]V[Dil][Dolaproine]-X1; lactam I:11-I:13; linker I:14-I:21-I:28 via TATA; linker I:N-II:N via X2)
NCI-H1975
  IC50: 79 nM
SK-OV-3
  IC50: 586 nM
[1]
  AUC(0-t): 0.518 µM·h
  C0: 1670 nM
  clearance: 14.4 mL/min/kg
  half-life: 0.29 h
[1]; read-out: Vdss
  Vd: 0.28 L/kg
Stability in whole blood
  half-life: 9.31 h
[2]
  half-life: > 3.61 h
[2]; read-out: CLint (liver)
  CLint scaled: < 23 mL/min/kg

— US20250121076A1, “POLYPEPTIDE DRUG CONJUGATE HAVING NOVEL STRUCTURE AND APPLICATION THEREOF” (MEDSHINE DISCOVERY INC., priority 2021, published 2025)
